Test results published in patent US20160122426A1 (DONG A SOCIO, published 2016).
Positions count from the first letter of the chain named.

T1: mouse VEGF (mouse, UniProt Q00731-2 27-190)
T1 construct: Bought recombinant protein; also called mVEGF-A; mouse VEGF-A
T1 sequence (looked up): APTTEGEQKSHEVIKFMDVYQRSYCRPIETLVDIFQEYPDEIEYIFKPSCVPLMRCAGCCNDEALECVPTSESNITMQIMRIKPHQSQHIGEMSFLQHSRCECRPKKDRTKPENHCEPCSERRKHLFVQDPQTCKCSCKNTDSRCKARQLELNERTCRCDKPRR

B1: HF2-2 (antibody, V domains shown)
VH: EVQLVESGGGLVQPGGSLRLSCAASRFNMRSHGMQWVRQAPGKGLEYVAGISSDGSWERVGAAVEGRFTISRDDSKNTAYLQMNSLRAEDTAVYYCARDFSTGYGADSIDAWGQGTLVTVSS
VL: DIQMTQSPSSLSASVGDRVTITCSGGSDSAYGYGWYQQKPGKAPKTLIYWDDKRPSGVPSRFSGSRSGTDFTLTISSLQPEDFATYYCGAWEYSGGVGIFGQGTKVEIK
B2: HF2-16 (antibody, V domains shown)
VH: B1 VH with R26G, N28R, M29I, E58V, R59K, G61A
VL: B1 VL with D28I, S29E, A30P, Y31L
B3: HF2-12 (antibody, V domains shown)
VH: B1 VH with R26Y, F27S, N28E, M29V, E58F, G61A
VL: B1 VL with D28M, S29E, A30P, Y31L
B4: HF2-3 (antibody, V domains shown)
VH: B1 VH with R26H, E58F, G61A
VL: B1 VL with V58A
notes: also called HF-3
B5: HF2-20 (antibody, V domains shown)
VH: B1 VH with R26Y, F27M, N28E, M29Y, E58S, G61D
VL: B1 VL
B6: HF2-18 (antibody, V domains shown)
VH: B1 VH with R26Y, F27W, N28A, M29F, E58F, R59S, V60S, G61A
VL: B1 VL with D28I, S29E, A30P, Y31L
B7: HF2-23 (antibody, V domains shown)
VH: B1 VH with R26G, N28R, M29I, E58F, R59S, V60S, G61A
VL: B1 VL with S29L, A30L, Y31L
B8: HF2-7 (antibody, V domains shown)
VH: B1 VH with R26Q, N28W, M29I, E58F, G61A
VL: B1 VL with D28M, S29E, A30P, Y31L
B9: HF2-17 (antibody, V domains shown)
VH: B1 VH with R26G, N28M, M29I, E58R, V60H, G61S
VL: B1 VL with D28I, S29E, A30P, Y31L
B10: HF2-21 (antibody, V domains shown)
VH: B1 VH with R26F, F27Q, N28Y, M29F, E58Y, G61Q
VL: B1 VL with D28M, S29E, A30P, Y31L
B11: HF2-15 (antibody, V domains shown)
VH: B1 VH with R26G, N28V, M29V, E58K, R59A, V60T, G61A
VL: B1 VL with D28Q, S29E, A30S, Y31L
B12: HF2-22 (antibody, V domains shown)
VH: B1 VH with R26G, N28R, M29I, E58F, G61A
VL: B1 VL with D28T, S29A, A30G, Y31V
B13: HF2-6 (antibody, V domains shown)
VH: B1 VH with N28L, M29L, E58F, G61A
VL: B1 VL with D28M, S29E, A30P, Y31L
B14: HF2-24 (antibody, V domains shown)
VH: B1 VH with E58V, R59K, G61A
VL: B1 VL with D28Q, S29E, A30S, Y31L

These binders were tested against T2, human VEGF (human, UniProt P15692-4 27-191) (assay: ELISA and BIAcore).
T2 construct: Bought recombinant protein; also called hVEGF; human VEGF-A
For B1, the “fold affinity over mother clone F” value was at least 10 times. For B2, the “fold affinity over mother clone F” value was at least 10 times. With B3 the “fold affinity over mother clone F” value was at least 10 times. With B4 the “fold affinity over mother clone F” value was at least 10 times. With B5 the “fold affinity over mother clone F” value was at least 10 times. In the case of B6, the “fold affinity over mother clone F” value is reported as at least 10 times. In the case of B7, the “fold affinity over mother clone F” value is reported as at least 10 times. B8 was tested, and the “fold affinity over mother clone F” value was at least 10 times. In the case of B9, the “fold affinity over mother clone F” value is reported as at least 10 times. For B10, the “fold affinity over mother clone F” value was at least 10 times. In the case of B11, the “fold affinity over mother clone F” value is reported as at least 10 times. With B12 the “fold affinity over mother clone F” value was at least 10 times. For B13, the “fold affinity over mother clone F” value was at least 10 times. B14 was tested, and the “fold affinity over mother clone F” value was at least 10 times.

These binders were tested against T1, mouse VEGF (assay: ELISA and BIAcore).
B1 was tested, and the “fold affinity over mother clone F” value was at least 10 times. For B2, the “fold affinity over mother clone F” value was at least 10 times. In the case of B3, the “fold affinity over mother clone F” value is reported as at least 10 times. In the case of B4, the “fold affinity over mother clone F” value is reported as at least 10 times. For B5, the “fold affinity over mother clone F” value was at least 10 times. B6 was tested, and the “fold affinity over mother clone F” value was at least 10 times. With B7 the “fold affinity over mother clone F” value was at least 10 times. For B8, the “fold affinity over mother clone F” value was at least 10 times. With B9 the “fold affinity over mother clone F” value was at least 10 times. For B10, the “fold affinity over mother clone F” value was at least 10 times. With B11 the “fold affinity over mother clone F” value was at least 10 times. For B12, the “fold affinity over mother clone F” value was at least 10 times. B13 was tested, and the “fold affinity over mother clone F” value was at least 10 times. For B14, the “fold affinity over mother clone F” value was at least 10 times.

What follows are binders tested against T2, human VEGF (assay: SPR (BIAcore X100), VEGF on CM5 chip, IgG injected, 1:1 Langmuir).
Description: Meanwhile, to measure the affinity, human VEGF and mouse VEGF were coupled to carboxymethylated dextran biosensor chips (CM5, GE) according to the manufacturer's instructions.
The association and dissociation rates were expressed by the association and dissociation sensorgram, and calculated using a simple 1:1 Langmuir binding model (BIAcore X100 evaluation software, ver. 2.0).
B1 showed a Kd of under 1 pM, a koff of under 1e-06 s⁻¹ and a kon of 1.1e+06 M⁻¹ s⁻¹. B4 showed a Kd of under 1 pM, a koff of under 1e-06 s⁻¹ and a kon of 1.3e+06 M⁻¹ s⁻¹. For B8, the Kd was 16 pM, the koff was 2.7e-05 s⁻¹ and the kon was 1.6e+06 M⁻¹ s⁻¹. Binder B13 has a Kd of under 1 pM, a koff of under 1e-06 s⁻¹ and a kon of 1.6e+06 M⁻¹ s⁻¹.
